In PMC3496014:

What was measured:
[1] = molecular target: MBP-PfAtg3 W105A (P. falciparum 3D7) (UniProt C0H519); test: pull-down
[2] = molecular target: MBP-PfAtg3 (P. falciparum 3D7) (UniProt C0H519); test: SPR
[3] = molecular target: MBP-PfAtg3 (P. falciparum 3D7) (UniProt C0H519); test: pull-down

| Substance | decrease of binding against wild type [1] [%] | Kd [2] [nM] | reduction of binding against wild type [3] [%] |
| --- | --- | --- | --- |
| His6-PfAtg8^CM (cysteine mutant C37I, C119S, C122S) (from UniProt Q8IJK2 1-124) (natural protein) | 35 | 326 |  |
| His6-PfAtg8 with deletion of residues 68 to 76 (from UniProt Q8IJK2 1-124) (natural protein) |  |  | 80 |
